Target: CD16 (FcγRIIIa/CD16a), high affinity variant with valine at amino acid 176, expressed on haNK003 cells (human) (UniProt P08637)
Experiment: cell-based or functional assay

Sequence of UniProt P08637 (P08637 other isoform, or with tags, fused parts or gaps mutant limits assumed): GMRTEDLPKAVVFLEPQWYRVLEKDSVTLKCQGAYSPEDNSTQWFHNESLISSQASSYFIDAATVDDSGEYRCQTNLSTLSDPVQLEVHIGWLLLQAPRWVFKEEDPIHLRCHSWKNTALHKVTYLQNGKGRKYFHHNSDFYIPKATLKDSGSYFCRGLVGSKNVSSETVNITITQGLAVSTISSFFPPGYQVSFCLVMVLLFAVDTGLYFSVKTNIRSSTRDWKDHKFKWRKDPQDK

In the case of Rituximab (antibody), the ADCC assay (specific lysis), haNK003 at 1:1 E:T Ratio with Rituxan (3.3 µg/mL) vs DOHH2 is reported as 52.8%.

Reference: patent publication US20260078342A1
